Here are results for 33 molecules from US20090297524A1 (DOMANTIS, published 2009).

The chains are these.
T1: Recombinant human CD40L (human, UniProt P29965 108-261, limits assumed)
T1 construct: also called CD40 ligand
T1 sequence (looked up): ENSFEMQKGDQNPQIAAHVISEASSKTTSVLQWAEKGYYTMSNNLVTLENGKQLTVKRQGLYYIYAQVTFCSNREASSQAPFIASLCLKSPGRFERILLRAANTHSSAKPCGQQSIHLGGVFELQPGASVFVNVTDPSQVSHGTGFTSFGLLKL

B1: DOM-59 (other)
VH: EVQLLESGGGLVQPGGSLRLSCAASGFTFLDYAMGWVRQAPGKGLEWVSTISPMGMGTYYADSVKGRFTISRDNSKNTLYLQMNSLRAEDTAVYYCAKSSAISFTSDISNFDYWGQGTLVTVSS
notes: VH dAb
B2: DOM-51 (other)
VL: DIQMTQSPSSLSASVGDRVTITCRASQPIVDELDWYQQKPGKAPKLLIYAASILQSGVPSRFSGSGSGTDFTLTISSLQPEDFATYYCHQWSTYPTTFGQGTKVEIKR
notes: Vk dAb
B3: DOM-45 (other)
VH: EVQLLESGGGLVQPGGSLRLSCAASGFTFGNYAMAWVRQAPGKGLEWVSKIGAQGLHTYYAGSVKGRFTISRDNSKNTLYLQMNSLRAEDTAVYYCAKQTTMDYERFDYWGQGTLVTVSS
notes: VH dAb
B4: DOM-40 (other)
VH: EVQLLESGGGLVQPGGSLRLSCAASGFTFKAYDMGWVRQAPGKGLEWVSQIGRDGSFTYYADSVKGRFTISRDNSKNTLYLQMNSLRAEDTAVYYCAKPRRYAIFTFDRGQGTLVTVSS
notes: VH dAb
B5: DOM-55 (other)
VH: EVQLLESGGGLVQPGGSLRLSCAASGFTFARYEMGWVRQAPGKGLEWVSRITAQGLGTYYADSVKGRFTISRDNSKNTLYLQMNSLRAEDTAVYYCAKYLTDFSSGHQEFDYWGQGTLVTVSS
notes: VH dAb
B6: DOM.88 (other)
VL: DIQMTQSPSSLSASVGDRVTITCRASQEIVEDLYWYQQKPGKAAKLLIYGASWLQSGVPSRFSGSGSGTDFTLTISSLQPEDFATYYCQQTRRRPYTFGQGTKVEIKR
notes: Vk dAb
B7: DOM-85 (other)
VH: EVQLLESGGGLVQPGGSLRLSCAASGFTFEQYDMRWVRQAPGKGLEWVSWIDEAGHETYYADSVKGRFTISRDNSRNTLYLQMNSLRAEDTAVYYCAKGMDGFDYWGQGTLVTVSS
notes: VH dAb
B8: DOM-81 (other)
VH: EVQLLESGGGLVQPGGFLRLSCAASGFTFELYPMAWVRQAPGKGLEWVSSISPVGFLTYYADSVKGRFTISRDNSKNTLYLQMNSLRAEDTAVYYCAKGHEGSYTPRSAFDYWGQGTLVTVSS
notes: VH dAb
B9: DOM-87 (other)
VL: DIQMTQSPSSLSASVGDRVTITCRASQDIDESLMWYQQKPGKAPRLLIYGVSYLQSGVPSRFSGSGSGTDFTLTISSLQPEDFATYYCQQRWKAPFTFGQGTKVEIKR
notes: Vk dAb
B10: DOM-44 (other)
VH: EVQLLESGGGLVQPGGSLRLSCAASGFTFTSYEMGWVRQAPGKGLEWVSSIEPTGITTYYADSVKGRFTISRDNSKNTLYLQMNSLRAEDTAVYYCAKPHFTELGFDYWGQGTLVTVSS
notes: VH dAb
B11: DOM-70 (other)
VH: EVQLLESGGGLVQPGGSLRLSCAASGFTFENYAMSWVRQAPGKGLEWVSTIAPLGVPTYYADSVKGRFTISRDNSKNTLYLQMNSLRAEDTAVYYCAKKKVGAWLQSRSFDYWGQGTLVTVSS
notes: VH dAb
B12: DOM-71 (other)
VH: EVQLLESGGGLVQPGGSLRLSCAASGFTFEGYPMSWVRQAPGKGLEWVSTISPLGPDTYYADSVKGRFTISRDNSKNTLYLQMNSLRAEDTAVYYCAKLLMGEYLNSRTFDYWGQGTLVTVSS
notes: VH dAb
B13: DOM-53 (other)
VL: DIQMTQSPSSLSASVGDRVTITCRASQAIYGGLRWYQQKPGKAPKLLIYGESMLQSGVPSRFSGSGSGTDFTLTISSLHPEDFATYYCQQVYHKPFTFGQGTKVEIKR
notes: Vk dAb
B14: DOM-56 (other)
VH: EVQLLESGGGLVQPGGSLRLSCAASGFTFNDYTMGWVRQAPGKGLEWVSWIHGTGGQTYYADSVKGRFTISRDNSKNTLYLQMNSLRAEDTAVYYCAKALADRSGGVVEFDYWGQGTLVTVSS
notes: VH dAb
B15: DOM-32 (other)
VH: EVQLLESGGGLVQPGGSLRLSCAASGFTFEVYQMGWVRQAPGKGLEWVSFIVPGGDLTYYADSVKGRFTISRDNSKNTLYLQMNSLRAEDTAVYYCAETWPEFDYWGQGTLVTVSS
notes: VH dAb
B16: DOM-46 (other)
VH: EVQLLESGGGLVQPGGSLRLSCAASGFTFELYAMAWVRQAPGKGLEWVSGIGAVGETTYYADSVKGRFTISRDNSKNTLYLQMNSLRAEDTAVYYCAKEANNLSDNLVFDYWGQGTLVTVSS
notes: VH dAb
B17: DOM-39 (other)
VL: DIQMTQSPSSLSASVGDCVTITCRASQNIDGLLWWYQQKPGKAPKLLIYAGSGLQSGVPSRFSGSGSGTDFTLTISSLQPEDFATYYCQQKAFEPFTFGQGTKVEIKR
notes: Vk dAb
B18: DOM-75 (other)
VH: EVQLLESGGGLVQPGGSLRLSCAASGFTFLQYPMGWVRQAPGKGLEWVSTISPVGLTTYYADSVKGRFTISRDNSKNTLYLQMNSLRAEDTAVYYCAKLFEGSRIQRDVGFDYWGQGTLVTVSS
notes: VH dAb
B19: DOM-54 (other)
VH: EVQLLESGGGLVQPGGSLRLSCAASGFTFTAYRMAWVRQAPGKGLEWVSWISPSGSGTYYADSVKGRFTISRDNSKNTLYLQMNSLRAEDTAVYYCAKTLTDSPSGHYEFDYWGQGTLVTVSS
notes: VH dAb
B20: DOM-69 (other)
VH: EVQLLESGGGLVQPGGSLRLSCAASGFTFLDYGMAWVRQAPGKGLEWVSAISPLGLSTYYADSVKSRFTISRDNSKNTLYLQMNSLRAEDTAVYYCAKEVRVGRGVHPPKFDYWGQGTLVTVSS
notes: VH dAb
B21: DOM-33 (other)
VL: DIQMTQSPSSLSASVGDRVTITCRASQTIGESLHWYQQKPGKAPRLLIYFASLLQSGVPSRFSGSGSGTDFTLTISSLQPEDFATYYCQQHHMLPSTFGQGTKVEIKR
notes: Vk dAb
B22: DOM-61 (other)
VH: EVQLLESGGGLVQPGGSLRLSCAASGFTFAAYAMTWVRQAPGKGLEWVSYISPNGTATYYADSVKGRFTISRDNSKNTLYLQMNSLRAEDTAVYYCAEYVGMRWNSFDYWGQGTLVTVSS
notes: VH dAb
B23: DOM-34 (other)
VL: DIQMTQSPSSLSASVGDRVTITCRASQWIGDSLSWYQQKPGKAPKLLIYFASYLQSGVPTRFSGSGSGTDFTLTISSLQPEDFATYYCQQYFENPVTFGQGTKVGIKR
notes: Vk dAb
B24: DOM-50 (other)
VL: B23 VL with A51G, T60S, F83S, F92Q, E93Y, N94V, V96S, G105E, R108Q
notes: Vk dAb
B25: DOM-48 (other)
VL: B23 VL with A51G, S56N, T60S, F92M, E93I, N94T, V96T, G105E
notes: Vk dAb
B26: DOM-72 (other)
VH: EVQLLESGGGLVQPGGSLRLSCAASGFTFEAYPMSWVRQAPGKGLEWVSSISPLGLWTYYADSVKGRFTISRDNSKNTLYLQMNSLRAEDTAVYYCAKLSAGAETHVYRLFDYWGQGTLVTVSS
notes: VH dAb
B27: DOM-82 (other)
VH: EVQLLESGGGLVQPGGSLRLSCAASGFTFVAYPMAWVRQAPGKGLEWVSTIAPLGGNTYYADSVKGRFTISRDNSKNTLYLQMNSLRAEDTAVYYCAKRPEGLQIDSQNFDYWGQGTLVTVSS
notes: VH dAb
B28: DOM-8 (other)
VL: DIQMTQSPSSLSASVGDRVTITCRASQFIDTSLEWYQQKPGKAPKLLIYDGSHLQSGVPSRFSGSGSGTDFTLTISSLQPEDLATYYCQQYWVLPLTFGQGTKVEIKR
notes: Vk dAb
B29: DOM-2 (other)
VH: EVQLLESGGGLVQPGGSLRLSCAASGFTFSDYEMMWVRQAPGKGLEWVSTITSDGISTYYADSVKGRFTIFRDNSKNTLYLQMNSLRAEDTAVYYCAKSGRFFDYWGQGTLVTVSS
notes: VH dAb
B30: DOM-7 (other)
VH: B29 VH with S30N, D31L, M35T, T50S, I56V, F71S, S99A, R101V, F102I
notes: VH dAb
B31: DOM-4 (other)
VH: B29 VH with S30D, D31N, M35T, T50S, I56T, F71S, S99P, G100N, R101P, F102P
notes: VH dAb
B32: DOM-5 (other)
VH: B29 VH with S30D, D31G, M35A, T50S, I56T, F71S, S99P, R101L, F102R
notes: VH dAb
B33: DOM-10 (other)
VH: EVQLLESGGGLVQPGGSLRLSCAASGFTFIAYDMSWVRQAPGKGLEWVSWIDEWGLQTYYADSVKGRFTISRDNSKNTLYLQMNSLRAEDTAVYYCAKKTPEEFDYWGQGTLVTVSS
notes: VH dAb

By IC50 is commonly meant the point on the concentration scale where inhibition reaches its midpoint.

Where a chain is given by its changes, count along the chain named.

The target of one assay is T1, Recombinant human CD40L. The experiment in a line: CD40L/CD40-Fc receptor binding assay.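 Also: plate assay with coated human CD40-Fc, bound ligand detected via HRP anti-biotin antibody and TMB, OD at 450 nm, lower signal indicates stronger inhibition by dAb.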
Consider B1, for which the binding result was “binds”. Same read-out and setting: the value for B2 was “binds”. Same read-out and setting: the value for B3 was “binds”; that for B4 was “binds”; that for B5 was “binds”.

B6: the binding result was “binds”. The same measure, in the same setting: the value for B7 was “binds”; that for B8 was “binds”; that for B9 was “binds”. The same measure, in the same setting: the value for B10 was “binds”. The same measure, in the same setting: next, B11: “binds”; B12: “binds”; B13: “binds”. B14: the binding result is listed as “binds”. In the case of B15, the binding result is listed as “binds”.

Consider B16, for which the binding result is “binds”. As to B17, the binding result is “binds”.

As for B18, the binding result is recorded as “binds”. Regarding B19, the binding result was “binds”. For the molecule B20, the binding result is “binds”. For B21, the binding result was “binds”. The same measure, in the same setting: the value for B22 was “binds”; that for B23 was “binds”; that for B24 was “binds”. Still for that read-out and setting: the value for B25 was “binds”; that for B26 was “binds”; that for B27 was “binds”.

Another assay deals with T1, Recombinant human CD40L. The assay can be described thus: CD40L receptor binding assay: dAb inhibits CD40L (3 ng/ml) binding to coated CD40/Fc.
Method: A 96 well Nunc Maxisorp assay plate was coated overnight at 4° C. with 100 μl per well of recombinant human CD40/Fc (R&D Systems) at 0.5 μg/ml in carbonate buffer. The plate was washed 3 times with 300 μl of 0.05% Tween/PBS and 3 times with 300 μl of PBS using a Tecan plate washer. The wells were blocked using 200 μl of PBS containing 2% (w/v) BSA and incubated for a minimum of 1 h at room temperature. The wells were washed as above, then 50 μl of purified dAb protein (or unpurified supernatant containing dAb from a micro-culture expression) was added to each well.
The plate was washed as described above, then 100 μl HRP conjugated anti-biotin antibody (1:5000 dilution in diluent) added to each well and the plate incubated for 1 hr at room temperature. The plate was washed again as described above using a Tecan plate washer and the assay developed using 100 μl of SureBlue 1-Component TMB MicroWell Peroxidase solution (the plate was left at room temperature for up to 20 min). The reaction was stopped by the addition of 100 μl M hydrochloric acid. The OD₄₅₀ₙₘ of the plate was assayed within 30 minutes of acid addition. The OD₄₅₀ₙₘ is proportional to the amount of bound streptavidin-HRP conjugate, therefore the greater the degree of dAb inhibition the lower the OD₄₅₀ₙₘ of the resulting signal.
As to B28, the IC50 amounted to 900 nM. Still for that read-out and setting: next, B29: 800 nM; B30: 1500 nM; B31: 100 nM.

With B32, the IC50 amounted to 3 nM.

Consider B33, for which the IC50 was found to be 50 nM.
